# Laboratory results reported in patent publication US20180021429A1 (PHARMA FOODS INTERNATIONAL, published 2018).
# Residue numbers refer to the chain shown, from its start.
# T1: His-tagged human FSTL1 (amino acid sequence of human FSTL1 used in Examples, SEQ ID NO: 70) (human, UniProt Q12841 21-308)
# T1 construct: Parent of the deletion mutants
# T1 sequence: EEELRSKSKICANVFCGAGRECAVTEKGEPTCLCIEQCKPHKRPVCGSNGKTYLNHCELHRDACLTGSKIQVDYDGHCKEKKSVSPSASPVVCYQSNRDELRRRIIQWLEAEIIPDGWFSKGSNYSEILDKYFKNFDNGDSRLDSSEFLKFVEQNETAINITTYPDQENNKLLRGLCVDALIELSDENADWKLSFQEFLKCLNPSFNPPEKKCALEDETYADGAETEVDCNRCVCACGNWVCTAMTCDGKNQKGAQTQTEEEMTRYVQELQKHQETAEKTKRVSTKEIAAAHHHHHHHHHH
# T2: His-tagged mouse FSTL1 (amino acid sequence of mouse FSTL1 used in Examples, SEQ ID NO: 72) (mouse, UniProt Q62356 19-306)
# T2 sequence: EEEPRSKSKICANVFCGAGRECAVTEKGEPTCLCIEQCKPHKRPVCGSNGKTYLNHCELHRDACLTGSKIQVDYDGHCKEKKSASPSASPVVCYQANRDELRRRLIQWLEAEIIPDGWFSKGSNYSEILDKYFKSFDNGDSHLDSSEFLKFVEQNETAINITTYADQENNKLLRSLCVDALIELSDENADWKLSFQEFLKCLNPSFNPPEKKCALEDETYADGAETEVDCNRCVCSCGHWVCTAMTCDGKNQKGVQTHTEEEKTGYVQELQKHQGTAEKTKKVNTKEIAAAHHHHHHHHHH
# T3: human FSTL1 (construct not stated) (human, UniProt Q12841 21-308)
# T3 construct: also called human FSTL1 antigen; FSTL1 (R&D Systems, Inc. Cat#1694-FN-050)
# T3 sequence: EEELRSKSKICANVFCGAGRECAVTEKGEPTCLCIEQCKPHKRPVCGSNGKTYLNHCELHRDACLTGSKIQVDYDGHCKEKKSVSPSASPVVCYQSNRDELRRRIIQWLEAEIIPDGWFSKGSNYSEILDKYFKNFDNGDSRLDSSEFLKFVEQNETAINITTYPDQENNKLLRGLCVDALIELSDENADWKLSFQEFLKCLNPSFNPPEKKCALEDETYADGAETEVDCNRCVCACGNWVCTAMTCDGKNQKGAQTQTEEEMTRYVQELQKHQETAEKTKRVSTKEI
# B1: anti-FSTL1 antibody clone #22 (chicken-mouse chimeric antibody) (antibody, mouse IgG1, kappa, V domains shown)
# VH: AVTLDESGGGLQTPGGALSLVCKASGFTFSSNGMAWVRQAPGKGLELVARINSSGSYTNYGAAVKGRATISRDNGQSTVRLQLNNLRAEDTGTYYCAKGASGYGAYPGNIDAWGHGTEVIVSS
# VL: ASTQPSSVSANPGETVKITCSGGSGSYGWFQQKSPGSAPVTVIYWDDRRPSDIPSRFSGSKSGSIHTLTITGVQADDEAVYLCGNAVRSGTGYVGVFGAGTTLTVLG
# B2: anti-FSTL1 antibody clone #7-34 (chicken-mouse chimeric antibody) (antibody, mouse IgG1, kappa, V domains shown)
# VH: AVTLDESGGGLQTPGGGLSLVCKASGFTFSSVTMQWVRQAPGKGLEWVASICSGSSTYYGPAVKGRATISRDNGQNTVRLQLNNLRAEDTATYYCAKIVGRGRWSCTSAAYNIDAWGHGTEVIVSS
# VL: ASTQPSSVSANPGETVKITCSGGGNNYGWYQQKSPGSAPVTVIYYNNNRPSNIPSRFSGSTSGSTSTLTITGVQAEDEAVYYCGSYEGSTDSGIFGAGTTLTVLG
# B3: anti-FSTL1 antibody clone #8-4 (chicken-mouse chimeric antibody) (antibody, mouse IgG1, kappa, V domains shown)
# VH: AVTLDESGGGLQTPGGGLSLVCKGSGFTLSSFNMFWVRQAPGKGLEWVAGVGKDGGTAYGAAVDGRATISRDSGQSTVRLQLNNLRAEDTGTYFCAKAAGGCSYSWCGAYVGDLDAWGHGTEVIVSS
# VL: ASSQPSSVSANPGETVKITCSGGSGYYYGWYQQKSPGSAPVTVIYNNDNKPSDIPSRFSGSKSGSTGTLTITGVQVEDEAVYFCGGYDNSGTGIFGAGTTLTVLG
# B4: anti-FSTL1 antibody clone #10 (chicken-mouse chimeric antibody) (antibody, mouse IgG1, kappa, V domains shown)
# VH: AVTLDESGGGLQTPGGALSLVCKASGFFFFRIYDMGWVRQAPGKGLEWVAGIDDYGRYTGYGSAVKGRATISRDNGQSTVRLQLNNLRAEDTGTYYCARGAGTGCNSAGCGAYAGSIDAWGHGTEVIVSS
# VL: ASTQPSSVSANPGETVKLTCSGGGSRYGWYQQKSPGSAPVTVIYYNDKRPSDIPSRFSGSKSGSTATLTITGVQAEDEAVYFCGGYDGSRDAGIFGAGTTLTVLG
# B5: optimized humanized antibody (humanized #6-55 H(2)-L(1), human IgG4 H chain constant region, λ L chain constant region) (antibody)
# heavy: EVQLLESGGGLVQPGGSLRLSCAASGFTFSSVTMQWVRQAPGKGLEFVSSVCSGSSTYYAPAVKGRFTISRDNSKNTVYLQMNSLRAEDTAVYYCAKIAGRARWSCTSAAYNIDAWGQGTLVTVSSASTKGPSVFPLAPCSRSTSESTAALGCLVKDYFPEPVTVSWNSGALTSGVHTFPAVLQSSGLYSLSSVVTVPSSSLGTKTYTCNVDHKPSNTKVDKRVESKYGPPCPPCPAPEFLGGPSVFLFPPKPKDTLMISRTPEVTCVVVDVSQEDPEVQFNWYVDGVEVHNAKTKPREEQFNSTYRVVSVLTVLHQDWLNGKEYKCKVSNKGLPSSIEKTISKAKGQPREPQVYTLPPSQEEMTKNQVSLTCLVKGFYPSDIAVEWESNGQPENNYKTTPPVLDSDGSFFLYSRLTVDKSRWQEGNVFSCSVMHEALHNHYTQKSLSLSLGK
# light: SYELTQPPSVSVSPGQTARITCSGGGNNYGWYQQKPGQAPVTVIYYNDNRPSGIPERFSGSNSGSTTTLTISGVQAEDEADYYCGSWDSNTDSGIFGGGTKLTVLGQPKAAPSVTLFPPSSEELQANKATLVCLISDFYPGAVTVAWKADSSPVKAGVETTTPSKQSNNKYAASSYLSLTPEQWKSHRSYSCQVTHEGSTVEKTVAPTECS
# notes: Expressed in ExpiCHO
# B6: humanized #6-55 antibody H(1)-L(1) (IgG1 type) (antibody, V domains shown)
# VH: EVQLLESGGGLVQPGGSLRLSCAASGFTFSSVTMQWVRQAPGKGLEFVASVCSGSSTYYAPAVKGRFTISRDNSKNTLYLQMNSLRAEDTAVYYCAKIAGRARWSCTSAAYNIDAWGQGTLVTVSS
# VL: SYELTQPPSVSVSPGQTARITCSGGGNNYGWYQQKPGQAPVTVIYYNDNRPSGIPERFSGSNSGSTTTLTISGVQAEDEADYYCGSWDSNTDSGIFGGGTKLTVLG
# notes: Human IgG1 constant region; expressed in HEK293 with a chicken antibody leader; also called h#6-55 H(1)-L(1)
# B7: humanized #6-55 antibody H(1)-L(2) (IgG1 type) (antibody, V domains shown)
# VH: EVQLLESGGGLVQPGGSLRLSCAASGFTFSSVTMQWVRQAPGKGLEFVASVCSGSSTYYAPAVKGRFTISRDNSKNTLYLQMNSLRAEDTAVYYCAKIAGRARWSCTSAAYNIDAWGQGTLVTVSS
# VL: B6 VL with N62T
# notes: Human IgG1 constant region; expressed in HEK293; also called h#6-55 H(1)-L(2)
# B8: humanized #6-55 antibody H(1)-L(3) (IgG1 type) (antibody, V domains shown)
# VH: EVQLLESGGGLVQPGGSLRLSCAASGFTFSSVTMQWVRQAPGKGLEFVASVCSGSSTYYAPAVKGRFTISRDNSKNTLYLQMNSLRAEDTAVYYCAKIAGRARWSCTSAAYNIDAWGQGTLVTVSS
# VL: B6 VL with S65N, T67A
# notes: Human IgG1 constant region; expressed in HEK293; also called h#6-55 H(1)-L(3)
# B9: humanized #6-55 antibody H(2)-L(2) (IgG1 type) (antibody, V domains shown)
# VH: EVQLLESGGGLVQPGGSLRLSCAASGFTFSSVTMQWVRQAPGKGLEFVSSVCSGSSTYYAPAVKGRFTISRDNSKNTVYLQMNSLRAEDTAVYYCAKIAGRARWSCTSAAYNIDAWGQGTLVTVSS
# VL: B6 VL with N62T
# notes: Human IgG1 constant region; expressed in HEK293; also called h#6-55 H(2)-L(2)
# B10: humanized #6-55 antibody H(2)-L(3) (IgG1 type) (antibody, V domains shown)
# VH: B9 VH
# VL: B6 VL with S65N, T67A
# notes: Human IgG1 constant region; expressed in HEK293; also called h#6-55 H(2)-L(3)
# B11: humanized #6-55 antibody H(3)-L(3) (IgG1 type) (antibody, V domains shown)
# VH: B9 VH with S49A, F67V
# VL: B6 VL with S65N, T67A
# notes: Human IgG1 constant region; expressed in HEK293; also called h#6-55 H(3)-L(3)
# B12: humanized #6-55 antibody H(2)-L(1) (IgG1 type) (antibody)
# heavy: not shown
# light: SYELTQPPSVSVSPGQTARITCSGGGNNYGWYQQKPGQAPVTVIYYNDNRPSGIPERFSGSNSGSTTTLTISGVQAEDEADYYCGSWDSNTDSGIFGGGTKLTVLGTVAAPSVFIFPPSDEQLKSGTASVVCLLNNFYPREAKVQWKVDNALQSGNSQESVTEQDSKDSTYSLSSTLTLSKADYEKHKVYACEVTHQGLSSPVTKSFNRGEC
# notes: Human IgG1 constant region; expressed in HEK293; lead antibody; also called h#6-55 H(2)-L(1); humanized #6-55 H chain (2)+L chain (1)
# Molecular target: T1, His-tagged human FSTL1 (amino acid …)
# Assay: ELISA, human FSTL1 coated (FIG. 3A)
row,Binder,binding result
1,B1,binds

# Molecular target: T2, His-tagged mouse FSTL1 (amino acid …)
# Assay: ELISA, mouse FSTL1 coated (FIG. 1B)
row,Binder,binding result
1,B2,binds

# Molecular target: T2, His-tagged mouse FSTL1 (amino acid …)
# Assay: ELISA, mouse FSTL1 coated (FIG. 3B)
row,Binder,binding result
1,B3,no binding (tested: antibody diluted from 100 ng/ml)
2,B4,binds
3,B1,binds

# Molecular target: T3, human FSTL1 (construct not stated)
# Assay: SPR (Biacore T-200), captured antibody, human FSTL1 10 µg/ml
# Description: (§1) The mouse chimeric antibodies were immobilized onto Sensor Chip CM5 (GE Healthcare Japan Corp., BR-1005-30) using Mouse Antibody Capture Kit (GE Healthcare Japan Corp., BR-1008-38), and their affinity for human FSTL1 was calculated using Biacore T-200 (GE Healthcare Japan Corp.).
Binder,Binding amount (RU),Dissociation amount (RU)
B2,14.2,2.5
B3,11.6,6.2
B4,11.7,6

# Molecular target: T3, human FSTL1 (construct not stated)
# Assay: as above
# Remark: another data set of the same source
# Description: as §1
# (§2) First, the exhaustive activity comparison of the obtained antibodies was conducted with the human FSTL1 concentration fixed to 10 μg/ml (Table 33-1, FIG. 28).
Binder,Binding amount (RU),Dissociation amount (RU)
B2,14.2,2.5
B3,11.6,6.2
B4,11.7,6

# Molecular target: T3, human FSTL1 (construct not stated)
# Assay: as above
# Remark: another data set of the same source
# Description: as §1, §2
Binder,Binding amount (RU),Dissociation amount (RU)
B2,14.2,2.5
B3,11.6,6.2
B4,11.7,6

# Molecular target: T3, human FSTL1 (construct not stated)
# Assay: as above
# Remark: another data set of the same source
# Description: as §1, §2
Binder,Binding amount (RU),Dissociation amount (RU)
B2,14.2,2.5
B3,11.6,6.2
B4,11.7,6

# Molecular target: T3, human FSTL1 (construct not stated)
# Assay: BLI (BLItz), biotinylated antigen 5 µg/ml on streptavidin sensor, antibody 0 to 40 ug/ml
# Description: The binding activity of the obtained purified antibody against FSTL1 was measured by use of the BLI method (BLItz, Pall Corp., 45-5000). The antigen was biotinylated using EZ-Link NHS-PEG4-Biotin (Thermo Fisher Scientific Inc., 21329). Streptavidin Tray (Pall Corp., 18-5019) was used as a sensor chip for the BLI method. The sensor chip was hydrated with PBS (Wako Pure Chemical Industries, Ltd., 166-23555) for 10 minutes or longer. 5 μg/ml of the biotinylated antigen was immobilized onto the hydrated sensor chip for 300 seconds. The antibody was adjusted to 40, 20, 10, 5, 2.5, or 0 ug/ml and reacted therewith for 120 seconds, and dissociation was measured for 300 seconds. When the antibody concentration of 0 ug/ml was used as a reference, the KD value was calculated.
row,Binder,Kd [nM]
1,B5,10.9

# Molecular target: T3, human FSTL1 (construct not stated)
# Assay: SPR (Biacore T-200), antibody on Human Antibody Capture Kit, human FSTL1 0 to 20 µg/ml
# Description: (§3) Nine IgG1-type humanized antibodies of #6-55 were immobilized onto Sensor Chip CM5 (GE Healthcare Japan Corp., BR-1005-30) using Human Antibody Capture Kit (GE Healthcare Japan Corp., BR-1008-38), and their affinity for human FSTL1 was calculated using Biacore T-200 (GE Healthcare Japan Corp.). […] Among the 9 IgG1-type humanized antibodies of #6-55, a clone composed of a combination “H(2)-L(1)” having a […] KD value was selected as a lead antibody.
row,Binder,Kd [nM]
1,B6,35.2
2,B7,25
3,B8,26.8
4,B9,11.3
5,B10,45
6,B11,24.9
7,B12,60.5

# Molecular target: T3, human FSTL1 (construct not stated)
# Assay: as above
# Remark: another data set of the same source
# Description: as §3
row,Binder,Kd [nM]
1,B6,35.2
2,B7,25
3,B8,26.8
4,B9,11.3
5,B10,45
6,B11,24.9
7,B12,60.5

# Molecular target: T3, human FSTL1 (construct not stated)
# Assay: as above
# Remark: another data set of the same source
# Description: as §3
row,Binder,Kd [nM]
1,B6,35.2
2,B7,25
3,B8,26.8
4,B9,11.3
5,B10,45
6,B11,24.9
7,B12,60.5

# Molecular target: T3, human FSTL1 (construct not stated)
# Assay: as above
# Remark: another data set of the same source
# Description: as §3
row,Binder,Kd [nM]
1,B6,35.2
2,B7,25
3,B8,26.8
4,B9,11.3
5,B10,45
6,B11,24.9
7,B12,60.5
